In the supplement of paper PMC11246515:
± gives the standard deviation of the averaged measurements.

Assay: total protein half-life in vivo (active degradation + dilution); higher = more stable protein
[1] = wild type E. coli NCM3722, growth: C-lim chemostat, doubling time 3 h
[2] = E. coli NCM3722 delta-clpP delta-lon delta-hslV, growth: N-lim chemostat, doubling time 6 h
[3] = E. coli NCM3722 delta-clpP, growth: N-lim chemostat, doubling time 6 h
[4] = E. coli NCM3722 delta-hslV, growth: N-lim chemostat, doubling time 6 h
[5] = E. coli NCM3722 delta-smpB, growth: N-lim chemostat, doubling time 6 h
[6] = wild type E. coli NCM3722, growth: C-lim chemostat, doubling time 6 h
[7] = wild type E. coli NCM3722, growth: C-lim chemostat, doubling time 12 h
[8] = wild type E. coli NCM3722, growth: N-lim chemostat, doubling time 6 h
[9] = wild type E. coli NCM3722, growth: N-lim chemostat, doubling time 12 h
[10] = wild type E. coli NCM3722, growth: P-lim chemostat, doubling time 6 h
[11] = wild type E. coli NCM3722, growth: P-lim chemostat, doubling time 12 h
[12] = E. coli NCM3722 delta-lon, growth: N-lim chemostat, doubling time 6 h

| Sequence | total protein half-life in vivo [1] [h] | total protein half-life in vivo [2] [h] | total protein half-life in vivo [3] [h] | total protein half-life in vivo [4] [h] | total protein half-life in vivo [5] [h] | total protein half-life in vivo [6] [h] | total protein half-life in vivo [7] [h] | total protein half-life in vivo [8] [h] | total protein half-life in vivo [9] [h] | total protein half-life in vivo [10] [h] | total protein half-life in vivo [11] [h] | total protein half-life in vivo [12] [h] |
| --- | --- | --- | --- | --- | --- | --- | --- | --- | --- | --- | --- | --- |
| MSLSRAAIVDQLKEIVGADRVITDETVLKKNSIDRFRKFPDIHGIYTLPIPAAVVKLGSTEQVSRVLNFMNAHKINGVPRTGASATEGGLETVVENSVVLDGSAMNQIINIDIENMQATAQCGVPLEVLENALREKGYTTGHSPQSKPLAQMGGLVATRSIGQFSTLYGAIEDMVVGLEAVLADGTVTRIKNVPRRAAGPDIRHIIIGNEGALCYITEVTVKIFKFTPENNLFYGYILEDMKTGFNILREIMVEGYRPSIARLYDAEDGTQHFTHFADGKCVLIFMAEGNPRIAKVTGEGIAEIVARYPQCQRVDSKLIETWFNNLNWGPDKVAAERVQILKTGNMGFTTEVSGCWSCIHEIYESVINRIRTEFPHADDITMLGGHSSHSYQNGTNMYFVYDYNVVDCKPEEEIDKYHNPLNKIICEETIRLGGSMVHHHGIGKHRVHWSKLEHGSAWALLEGLKKQFDPNGIMNTGTIYPIEK | 3.54 |  |  |  |  |  |  |  |  |  |  |  |
| MSLTELTGNPRHDQLLMLIAERGYMNIDELANLLDVSTQTVRRDIRKLSEQGLITRHHGGAGRASSVVNTAFEQREVSQTEEKKAIAEAVADYIPDGSTIFITIGTTVEHVARALLNHNHLRIITNSLRVAHILYHNPRFEVMVPGGTLRSHNSGIIGPSAASFVADFRADYLVTSVGAIESDGALMEFDVNEANVVKTMMAHARNILLVADHTKYHASAAVEIGNVAQVTALFTDELPPAALKSRLQDSQIEIILPQEDA | 2.8 ± 0.12 | 5.99 ± 0.15 | 4.97 ± 0.17 | 5.17 ± 0.35 | 4.98 ± 0.86 | 5.113 ± 0.0071 | 10.7 ± 0.88 | 4.89 ± 1 | 8.59 | 4.9 ± 0.25 | 8.679 ± 0.03 |  |
| MSLTLTLTGTGGAQGVPAWGCECAACARARRSPQYRRQPCSGVVKFNDAITLIDAGLHDLADRWSPGSFQQFLLTHYHMDHVQGLFPLRWGVGDPIPVYGPPDEQGCDDLFKHPGLLDFSHTVEPFVVFDLQGLQVTPLPLNHSKLTFGYLLETAHSRVAWLSDTAGLPEKTLKFLRNNQPQVMVMDCSHPPRADAPRNHCDLNTVLALNQVIRSPRVILTHISHQFDAWLMENALPSGFEVGFDGMEIGVA | 2.37 | 6.78 | 4.09 ± 0.048 | 4.36 ± 0.11 | 4.8 | 4.07 | 9.33 ± 0.34 | 4.3 | 7.1 | 4.41 | 8.54 ± 2.5 | 4.56 ± 0.17 |
| MSNFINIHVLISHSPSCLNRDDMNMQKDAIFGGKRRVRISSQSLKRAMRKSGYYAQNIGESSLRTIHLAQLRDVLRQKLGERFDQKIIDKTLALLSGKSVDEAEKISADAVTPWVVGEIAWFCEQVAKAEADNLDDKKLLKVLKEDIAAIRVNLQQGVDIALSGRMATSGMMTELGKVDGAMSIAHAITTHQVDSDIDWFTAVDDLQEQGSAHLGTQEFSSGVFYRYANINLAQLQENLGGASREQALEIATHVVHMLATEVPGAKQRTYAAFNPADMVMVNFSDMPLSMANAFEKAVKAKDGFLQPSIQAFNQYWDRVANGYGLNGAAAQFSLSDVDPITAQVKQMPTLEQLKSWVRNNGEA | 2.13 | 6.17 ± 0.55 | 2.77 |  |  | 4.22 |  |  |  | 5.28 | 11.4 ± 1.2 | 2.71 |
| MSNKNVNVRKSQEITFCLLAGILMFMAMMVAGRAEAGVALGATRVIYPAGQKQEQLAVTNNDENSTYLIQSWVENADGVKDGRFIVTPPLFAMKGKKENTLRILDATNNQLPQDRESLFWMNVKAIPSMDKSKLTENTLQLAIISRIKLYYRPAKLALPPDQAAEKLRFRRSANSLTLINPTPYYLTVTELNAGTRVLENALVPPMGESTVKLPSDAGSNITYRTINDYGALTPKMTGVME |  | 4.77 |  |  | 5.38 ± 0.18 | 5.55 ± 0.66 | > 16 | 7.84 | 14.8 | 5.67 | 13.2 ± 3 |  |
| MSNKPFHYQAPFPLKKDDTEYYLLTSEHVSVSEFEGQEILKVAPEALTLLARQAFHDASFMLRPAHQQQVADILRDPEASENDKYVALQFLRNSDIAAKGVLPTCQDTGTAIIVGKKGQRVWTGGGDEAALARGVYNTYIEDNLRYSQNAPLDMYKEVNTGTNLPAQIDLYAVDGDEYKFLCIAKGGGSANKTYLYQETKALLTPGKLKNYLVEKMRTLGTAACPPYHIAFVIGGTSAETNLKTVKLASAKYYDELPTEGNEHGQAFRDVELEKELLIEAQNLGLGAQFGGKYFAHDIRVIRLPRHGASCPVGMGVSCSADRNIKAKINRQGIWIEKLEHNPGKYIPEELRKAGEGEAVRVDLNRPMKEILAQLSQYPVSTRLSLNGTIIVGRDIAHAKLKERMDNGEGLPQYIKDHPIYYAGPAKTPEGYASGSLGPTTAGRMDSYVDQLQAQGGSMIMLAKGNRSQQVTDACKKHGGFYLGSIGGPAAVLAQGSIKSLECVEYPELGMEAIWKIEVEDFPAFILVDDKGNDFFQQIQLTQCTRCVK [P0AC33] | 3.13 ± 0.2 | 4.02 ± 1.1 | 2.82 ± 0.17 | 2.53 ± 0.47 | 2.36 ± 0.071 | 4.39 ± 0.14 | 7.67 ± 1.4 | 2.51 ± 0.22 | 3.37 ± 0.11 | 5.02 ± 0.12 | 8.932 ± 0.051 | 2.86 ± 0.043 |
| MSNNALQTIINARLPGEEGLWQIHLQDGKISAIDAQSGVMPITENSLDAEQGLVIPPFVEPHIHLDTTQTAGQPNWNQSGTLFEGIERWAERKALLTHDDVKQRAWQTLKWQIANGIQHVRTHVDVSDATLTALKAMLEVKQEVAPWIDLQIVAFPQEGILSYPNGEALLEEALRLGADVVGAIPHFEFTREYGVESLHKTFALAQKYDRLIDVHCDEIDDEQSRFVETVAALAHHEGMGARVTASHTTAMHSYNGAYTSRLFRLLKMSGINFVANPLVNIHLQGRFDTYPKRRGITRVKEMLESGINVCFGHDDVFDPWYPLGTANMLQVLHMGLHVCQLMGYGQINDGLNLITHHSARTLNLQDYGIAAGNSANLIILPAENGFDALRRQVPVRYSVRGGKVIASTQPAQTTVYLEQPEAIDYKR | 2.9 ± 0.17 | 6.27 ± 0.14 | 5.838 ± 0.02 | 5.57 ± 0.45 | 5.64 ± 0.32 | 5.8 ± 0.1 | 14.3 ± 0.34 | 5.43 ± 0.29 | 12.3 ± 1.4 |  | 12.7 ± 0.35 | 6.13 ± 0.073 |
| MSNNEFHQRRLSATPRGVGVMCNFFAQSAENATLKDVEGNEYIDFAAGIAVLNTGHRHPDLVAAVEQQLQQFTHTAYQIVPYESYVTLAEKINALAPVSGQAKTAFFTTGAEAVENAVKIARAHTGRPGVIAFSGGFHGRTYMTMALTGKVAPYKIGFGPFPGSVYHVPYPSDLHGISTQDSLDAIERLFKSDIEAKQVAAIIFEPVQGEGGFNVAPKELVAAIRRLCDEHGIVMIADEVQSGFARTGKLFAMDHYADKPDLMTMAKSLAGGMPLSGVVGNANIMDAPAPGGLGGTYAGNPLAVAAAHAVLNIIDKESLCERANQLGQRLKNTLIDAKESVPAIAAVRGLGSMIAVEFNDPQTGEPSAAIAQKIQQRALAQGLLLLTCGAYGNVIRFLYPLTIPDAQFDAAMKILQDALSD | 2.883 ± 0.027 | 3.77 ± 0.53 |  | 1 | 0.902 ± 0.068 | 2.81 ± 0.47 | 4.33 ± 0.44 | 1.25 | 1.67 | 3.46 ± 0.35 | 5.88 ± 0.5 |  |
